Numbered stars: 1 amine (or outer) side, 2 acyl side, 3 side chain; on linkers, the order of the positions; unused ones are H or OH. Bridge positions count the residues as written; N and C are the ends. Side chains are listed from the residue outwards. Ends that are not written are not given here. * marks the point of attachment. C20 diacid = O=C(O)CCCCCCCCCCCCCCCCCCC(=O)*; γGlu = O=C(O)[C@H](CCC(=O)[*:2])N[*:1]
T1: rat amylin receptor (rat calcitonin receptor + rat RAMP 3) (rat, UniProt P32214 25-516; Q9JJ73 23-147)
T1 construct: whole, on cells; Membranes of transiently transfected BHK tk'ts 13 cells; also called rAmylin-R; rat amylin 3(a) receptor
T1 sequence (looked up) 1: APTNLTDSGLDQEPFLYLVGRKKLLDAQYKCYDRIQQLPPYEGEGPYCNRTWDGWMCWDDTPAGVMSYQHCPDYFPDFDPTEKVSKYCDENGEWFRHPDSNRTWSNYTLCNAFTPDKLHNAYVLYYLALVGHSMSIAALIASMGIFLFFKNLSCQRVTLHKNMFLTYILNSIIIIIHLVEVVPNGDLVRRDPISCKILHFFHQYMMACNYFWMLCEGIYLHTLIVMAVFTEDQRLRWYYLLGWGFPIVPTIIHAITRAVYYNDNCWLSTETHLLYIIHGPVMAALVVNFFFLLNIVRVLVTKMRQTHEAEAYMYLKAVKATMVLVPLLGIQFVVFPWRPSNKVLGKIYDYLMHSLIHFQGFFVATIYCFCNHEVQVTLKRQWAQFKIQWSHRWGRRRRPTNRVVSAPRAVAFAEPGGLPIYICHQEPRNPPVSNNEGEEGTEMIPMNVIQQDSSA
T1 sequence (looked up) 2: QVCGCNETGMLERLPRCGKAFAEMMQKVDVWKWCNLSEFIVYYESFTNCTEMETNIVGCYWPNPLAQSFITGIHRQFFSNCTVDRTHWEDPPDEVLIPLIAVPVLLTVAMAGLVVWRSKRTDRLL

T2: human calcitonin receptor (human, UniProt P30988 25-474)
T2 construct: whole, on cells; Membranes of stably transfected cells; also called hCTR; hCT
T2 sequence (looked up): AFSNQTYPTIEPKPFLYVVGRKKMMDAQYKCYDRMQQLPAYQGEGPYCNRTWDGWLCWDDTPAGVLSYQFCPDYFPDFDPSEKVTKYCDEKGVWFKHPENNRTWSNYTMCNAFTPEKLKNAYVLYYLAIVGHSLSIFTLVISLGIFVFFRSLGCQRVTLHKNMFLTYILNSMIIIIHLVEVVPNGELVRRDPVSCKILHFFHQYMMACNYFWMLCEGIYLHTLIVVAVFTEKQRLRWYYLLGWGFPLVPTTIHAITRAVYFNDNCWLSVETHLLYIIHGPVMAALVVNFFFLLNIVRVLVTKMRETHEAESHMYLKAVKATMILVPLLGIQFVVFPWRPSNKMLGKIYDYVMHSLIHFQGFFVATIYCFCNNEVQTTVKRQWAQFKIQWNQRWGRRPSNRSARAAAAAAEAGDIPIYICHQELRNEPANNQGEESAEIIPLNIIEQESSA

T3: rat calcitonin receptor (rat, UniProt P32214 25-516)
T3 construct: whole, on cells; Membranes of transiently transfected BHK tk'ts 13 cells; also called rCTR; rat calcitonin (a) receptor
T3 sequence (looked up): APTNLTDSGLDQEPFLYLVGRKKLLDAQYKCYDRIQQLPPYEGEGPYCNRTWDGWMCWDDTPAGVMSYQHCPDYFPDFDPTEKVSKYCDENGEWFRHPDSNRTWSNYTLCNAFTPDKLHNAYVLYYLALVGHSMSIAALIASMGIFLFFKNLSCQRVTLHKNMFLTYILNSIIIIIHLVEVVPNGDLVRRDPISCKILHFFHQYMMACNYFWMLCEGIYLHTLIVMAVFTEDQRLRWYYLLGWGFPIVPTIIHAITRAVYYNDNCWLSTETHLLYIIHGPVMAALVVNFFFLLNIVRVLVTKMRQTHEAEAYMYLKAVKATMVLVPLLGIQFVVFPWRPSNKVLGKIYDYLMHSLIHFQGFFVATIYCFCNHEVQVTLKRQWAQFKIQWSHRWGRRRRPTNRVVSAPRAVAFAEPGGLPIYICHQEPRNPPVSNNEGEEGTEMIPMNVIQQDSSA


Tests used:
[1] = target: T1, rat amylin receptor (rat calcitonin …); assay: SPA competition with 125I-rat amylin on membranes of BHK tk'ts 13 cells with rat calcitonin receptor + rat RAMP3 (Assay VI)
[2] = target: T2, human calcitonin receptor; assay: ratio of IC50 on human calcitonin receptor to IC50 on human amylin receptor (reference m42), SPA competition
In short: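 Scintillation proximity competition binding on cell membranes at 35 ng/μL with SPA beads, in 50 mM Hepes pH 7.4, 1 mM CaCl2, 5 mM MgCl₂, 0.1% OA, 0.02% Tween20. Incubated 120 min at 25° C with shaking. IC₅₀ from one-site competition fit.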

rat calcitonin receptor [3] = target: T3, rat calcitonin receptor; assay: SPA competition with 125I-calcitonin on membranes of BHK tk'ts 13 cells with rat calcitonin receptor (Assay VIII)
rat calcitonin receptor [4] = target: T3, rat calcitonin receptor; assay: ratio of IC50 on rat calcitonin receptor to IC50 on rat amylin receptor (reference m40)

Binder | IC50 [1] | Ratio hCT/hAmylin binding [2] | IC50 (rat calcitonin receptor [3]) | Ratio rCT/rAmylin binding (rat calcitonin receptor [4])
K([γGlu-γGlu-C20 diacid])CNTATCATQRLAEFLRHSSPNFGAIPSSTNVGPNTF-NH2 (disulfide 2-7; N-terminus assumed; SMILES CC[C@H](C)[C@H](NC(=O)[C@H](C)NC(=O)CNC(=O)[C@H](Cc1ccccc1)NC(=O)[C@H](CC(N)=O)NC(=O)[C@@H]1CCCN1C(=O)[C@H](CO)NC(=O)[C@H](CO)NC(=O)[C@H](Cc1c[nH]cn1)NC(=O)[C@H](CCCNC(=N)N)NC(=O)[C@H](CC(C)C)NC(=O)[C@H](Cc1ccccc1)NC(=O)[C@H](CCC(=O)O)NC(=O)[C@H](C)NC(=O)[C@H](CC(C)C)NC(=O)[C@H](CCCNC(=N)N)NC(=O)[C@H](CCC(N)=O)NC(=O)[C@@H](NC(=O)[C@H](C)NC(=O)[C@@H]1CSSC[C@H](NC(=O)[C@@H](N)CCCCNC(=O)CC[C@H](NC(=O)CC[C@H](NC(=O)CCCCCCCCCCCCCCCCCCC(=O)O)C(=O)O)C(=O)O)C(=O)N[C@@H](CC(N)=O)C(=O)N[C@@H]([C@@H](C)O)C(=O)N[C@@H](C)C(=O)N[C@@H]([C@@H](C)O)C(=O)N1)[C@@H](C)O)C(=O)N1CCC[C@H]1C(=O)N[C@@H](CO)C(=O)N[C@@H](CO)C(=O)N[C@H](C(=O)N[C@@H](CC(N)=O)C(=O)N[C@H](C(=O)NCC(=O)N1CCC[C@H]1C(=O)N[C@@H](CC(N)=O)C(=O)N[C@H](C(=O)N[C@@H](Cc1ccccc1)C(N)=O)[C@@H](C)O)C(C)C)[C@@H](C)O, Synthetic acylated analogue of human amylin) | 0.205 nM | 18 | 23.4 nM | 114
K([γGlu-γGlu-C20 diacid])CNTATCATQRLAEFLRHSSPNFGAILSSTPVGPETY-NH2 (disulfide 2-7, Synthetic acylated analogue of human amylin) | 0.449 nM | 22.6 | 33.5 nM | 74.7

Further lines, results first:

IC50 [1] | Ratio hCT/hAmylin binding [2] | IC50 (rat calcitonin receptor [3]) | Ratio rCT/rAmylin binding (rat calcitonin receptor [4]) | Binder
0.668 nM | 145 | 104 nM | 156 | K([γGlu-γGlu-C20 diacid])CNTATCATQRLAHFLRHSSPNFGAIPSSTNVGSNTY-NH2 (disulfide 2-7; N-terminus assumed; SMILES CC[C@H](C)[C@H](NC(=O)[C@H](C)NC(=O)CNC(=O)[C@H](Cc1ccccc1)NC(=O)[C@H](CC(N)=O)NC(=O)[C@@H]1CCCN1C(=O)[C@H](CO)NC(=O)[C@H](CO)NC(=O)[C@H](Cc1c[nH]cn1)NC(=O)[C@H](CCCNC(=N)N)NC(=O)[C@H](CC(C)C)NC(=O)[C@H](Cc1ccccc1)NC(=O)[C@H](Cc1c[nH]cn1)NC(=O)[C@H](C)NC(=O)[C@H](CC(C)C)NC(=O)[C@H](CCCNC(=N)N)NC(=O)[C@H](CCC(N)=O)NC(=O)[C@@H](NC(=O)[C@H](C)NC(=O)[C@@H]1CSSC[C@H](NC(=O)[C@@H](N)CCCCNC(=O)CC[C@H](NC(=O)CC[C@H](NC(=O)CCCCCCCCCCCCCCCCCCC(=O)O)C(=O)O)C(=O)O)C(=O)N[C@@H](CC(N)=O)C(=O)N[C@@H]([C@@H](C)O)C(=O)N[C@@H](C)C(=O)N[C@@H]([C@@H](C)O)C(=O)N1)[C@@H](C)O)C(=O)N1CCC[C@H]1C(=O)N[C@@H](CO)C(=O)N[C@@H](CO)C(=O)N[C@H](C(=O)N[C@@H](CC(N)=O)C(=O)N[C@H](C(=O)NCC(=O)N[C@@H](CO)C(=O)N[C@@H](CC(N)=O)C(=O)N[C@H](C(=O)N[C@@H](Cc1ccc(O)cc1)C(N)=O)[C@@H](C)O)C(C)C)[C@@H](C)O, Synthetic acylated analogue of human amylin; also called compound 92)
0.659 nM | 7.8 | 86.8 nM | 132 | K([γGlu-γGlu-C20 diacid])CNTATCATQRLAEFLRHSSNNPGAILSSTNVGPETY-NH2 (disulfide 2-7; N-terminus assumed; SMILES CC[C@H](C)[C@H](NC(=O)[C@H](C)NC(=O)CNC(=O)[C@@H]1CCCN1C(=O)[C@H](CC(N)=O)NC(=O)[C@H](CC(N)=O)NC(=O)[C@H](CO)NC(=O)[C@H](CO)NC(=O)[C@H](Cc1c[nH]cn1)NC(=O)[C@H](CCCNC(=N)N)NC(=O)[C@H](CC(C)C)NC(=O)[C@H](Cc1ccccc1)NC(=O)[C@H](CCC(=O)O)NC(=O)[C@H](C)NC(=O)[C@H](CC(C)C)NC(=O)[C@H](CCCNC(=N)N)NC(=O)[C@H](CCC(N)=O)NC(=O)[C@@H](NC(=O)[C@H](C)NC(=O)[C@@H]1CSSC[C@H](NC(=O)[C@@H](N)CCCCNC(=O)CC[C@H](NC(=O)CC[C@H](NC(=O)CCCCCCCCCCCCCCCCCCC(=O)O)C(=O)O)C(=O)O)C(=O)N[C@@H](CC(N)=O)C(=O)N[C@@H]([C@@H](C)O)C(=O)N[C@@H](C)C(=O)N[C@@H]([C@@H](C)O)C(=O)N1)[C@@H](C)O)C(=O)N[C@@H](CC(C)C)C(=O)N[C@@H](CO)C(=O)N[C@@H](CO)C(=O)N[C@H](C(=O)N[C@@H](CC(N)=O)C(=O)N[C@H](C(=O)NCC(=O)N1CCC[C@H]1C(=O)N[C@@H](CCC(=O)O)C(=O)N[C@H](C(=O)N[C@@H](Cc1ccc(O)cc1)C(N)=O)[C@@H](C)O)C(C)C)[C@@H](C)O, Synthetic acylated analogue of human amylin)
0.161 nM | 45.3 | 140 nM | 868 | K([γGlu-γGlu-C20 diacid])CNTATCATQRLASFLRHSSPNFGAIPSSTNVGPETY-NH2 (disulfide 2-7; N-terminus assumed; SMILES CC[C@H](C)[C@H](NC(=O)[C@H](C)NC(=O)CNC(=O)[C@H](Cc1ccccc1)NC(=O)[C@H](CC(N)=O)NC(=O)[C@@H]1CCCN1C(=O)[C@H](CO)NC(=O)[C@H](CO)NC(=O)[C@H](Cc1c[nH]cn1)NC(=O)[C@H](CCCNC(=N)N)NC(=O)[C@H](CC(C)C)NC(=O)[C@H](Cc1ccccc1)NC(=O)[C@H](CO)NC(=O)[C@H](C)NC(=O)[C@H](CC(C)C)NC(=O)[C@H](CCCNC(=N)N)NC(=O)[C@H](CCC(N)=O)NC(=O)[C@@H](NC(=O)[C@H](C)NC(=O)[C@@H]1CSSC[C@H](NC(=O)[C@@H](N)CCCCNC(=O)CC[C@H](NC(=O)CC[C@H](NC(=O)CCCCCCCCCCCCCCCCCCC(=O)O)C(=O)O)C(=O)O)C(=O)N[C@@H](CC(N)=O)C(=O)N[C@@H]([C@@H](C)O)C(=O)N[C@@H](C)C(=O)N[C@@H]([C@@H](C)O)C(=O)N1)[C@@H](C)O)C(=O)N1CCC[C@H]1C(=O)N[C@@H](CO)C(=O)N[C@@H](CO)C(=O)N[C@H](C(=O)N[C@@H](CC(N)=O)C(=O)N[C@H](C(=O)NCC(=O)N1CCC[C@H]1C(=O)N[C@@H](CCC(=O)O)C(=O)N[C@H](C(=O)N[C@@H](Cc1ccc(O)cc1)C(N)=O)[C@@H](C)O)C(C)C)[C@@H](C)O, Synthetic acylated analogue of human amylin; also called compound 120)

Source: patent publication US20140087995A1 (published 2014)
